EC50, binding result and Kd data for four molecules are collected here from patent US20240254229A1 (Molecular Partners, published 2024).

For test [1], the target named is T1, Molm-13 N1 tumor cells (carrying CD123, CD33 and CD70) (human, UniProt P20138 18-364; P26951 19-378; P32970 1-193).
T1 construct: whole, on cells; Not a complex: three separate antigens on one cell; also called Molm-13 N1 cells
Kind of test: flow cytometry on Molm-13 N1 cells, 20 uM HSA. As to the method: The determination of binding of several multispecific proteins to tumor cells was performed by Fluorescence Activated Cell Sorting (FACS) flow cytometry. Therefore, tumor cells (Molm-13 N1), were seeded at 100′000 cells per well in a 96 well plate. DARPin® protein #56, DARPin® protein #57, DARPin® protein #58, DARPin® protein #59, DARPin® protein #60, DARPin® protein #61 and DARPin® protein #62 were titrated down starting at 100 nM in 1:5 dilution ratio. Tumor cells were resuspended with diluted DARPin® proteins and incubated 60 minutes at 4° C. The assay was performed in PBS including 2% fetal bovine serum and human serum albumin 20 uM (HSA). After washing twice with Phosphate Buffer saline (PBS), DARPin® protein specific tumor cell binding was detected by adding unlabelled primary […] (anti-rabbit 1-1-1 antibody, CePower) at 2 ug/ml. An incubation step of at least 30 minutes at 4° C. followed. Afterwards, cells were washed with PBS and a secondary anti-rabbit antibody labelled with Alexa Fluor 647 antibody (ThermoFisher) at 2 ug/ml was added. The same incubation conditions applied. Finally, the cells were washed twice and resuspended in Cytofix fixation buffer (BD Biosciences) for 15 min at room temperature (RT). Median fluorescence intensities (MFI) of Alexa Fluor 647 DARPin® labelled cells were measured by Attune NxT (Thermo Fisher) using FlowJo software for analyses and GraphPad Prism 8 for data plotting.

The target in test [2] is T2, biotinylated extracellular domain of human CD123 (SEQ ID NO: 88), Fc and Avi tagged (human, UniProt P26951 19-303, biotinylated with BirA-GST (Avi tag)).
T2 construct: also called hCD123
T2 sequence: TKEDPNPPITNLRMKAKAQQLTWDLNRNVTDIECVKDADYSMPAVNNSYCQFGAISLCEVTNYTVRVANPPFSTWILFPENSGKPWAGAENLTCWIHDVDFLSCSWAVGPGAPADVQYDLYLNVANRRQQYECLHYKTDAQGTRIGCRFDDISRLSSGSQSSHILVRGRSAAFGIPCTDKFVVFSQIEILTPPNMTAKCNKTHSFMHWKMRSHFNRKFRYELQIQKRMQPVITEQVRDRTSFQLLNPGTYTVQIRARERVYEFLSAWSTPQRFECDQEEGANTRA
Kind of test: SPR (ProteOn XPR36), target on GLC chip. An excerpt:
(§1) For that, DARPin® protein #27, DARPin® protein #29, DARPin® protein #47 and DARPin® protein #48 and DARPin® protein #49, DARPin® protein #50, DARPin® protein #51, DARPin® protein #52, DARPin® protein #31, DARPin® protein #53, DARPin® protein #54, DARPin® protein #55, DARPin® protein #34, DARPin® protein #33, DARPin® protein #39 and DARPin® protein #36 were subcloned and expressed as described above into derivatives of the pQE30 (Qiagen) expression vector, containing an N-terminal His-tag, CD33, CD123 and/or CD70 binding ankyrin repeat domains, followed by a CD3 specific ankyrin repeat domain and for some constructs by a human serum albumin specific ankyrin repeat domain.
(§2) Briefly, biotinylated human CD70, CD123 and CD33 was diluted in PBST (PBS, pH 7.4 containing 0.005% Tween 20®) and coated on a GLC chip (BioRad) to a level of around 200, 460 and 450 resonance units (RU) respectively. HSA in NaOAc pH 5.0 was directly immobilized on the GLC chip to a level of 800 RU. Bio.CD70, bio. CD33 and bio. CD123 required to have Neutravidin coated first to a level of 6000 RU before the biotinylated targets could be applied. The interaction of the selected ankyrin repeat proteins and human CD70, CD123 and CD33 was then measured by injecting 300 μl running buffer (PBS, pH 7.4 containing 0.005% Tween 20®) containing serial dilutions of ankyrin repeat proteins covering a concentration range between 100 nM and 2.6 nM (100, 40, 16, 6.4 and 2.6 nM respectively) for multi-trace SPR measurements, with an association of 120 s and dissociation of 1200 s using a constant flow of 100 μl/min. The regeneration was performed using 30 μl of 4 mM Glycine pH 2. The signals (i.e. resonance unit (RU) values) of the interspots and a reference injection (i.e. injection of running buffer only) were subtracted from the RU traces obtained after injection of ankyrin repeat protein (double-referencing).

For test [3], the target named is T3, biotinylated extracellular domain of human CD33 (SEQ ID NO: 87), Fc and Avi tagged (human, UniProt P20138 18-259, biotinylated with BirA-GST (Avi tag)).
T3 construct: also called hCD33; human target hCD33
Kind of test: SPR (ProteOn XPR36), target on GLC chip, DARPin as analyte.
Excerpt: as §1, §2

Test [4] deals with T4, extracellular domain of human CD70 (SEQ ID NO: 89), hCD70-Fc-trimer, ACRO Biosystems (human, UniProt P32970 52-193, chemically biotinylated where the biotinylated form was used).
T4 construct: also called human CD70-Fc-trimer; Bio.CD70
T4 sequence: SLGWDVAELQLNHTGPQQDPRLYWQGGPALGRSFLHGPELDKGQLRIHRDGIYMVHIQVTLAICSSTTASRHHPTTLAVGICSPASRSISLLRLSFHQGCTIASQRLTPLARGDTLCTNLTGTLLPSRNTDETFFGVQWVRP
Described as above.
Excerpt: as §1, §2

In another test the target is T5, human serum albumin (human, UniProt P02768 25-609).
T5 construct: also called HSA; SA
Described as above.
Excerpt: as §1, §2

T1 sequence (P20138 18-364, one chain of several): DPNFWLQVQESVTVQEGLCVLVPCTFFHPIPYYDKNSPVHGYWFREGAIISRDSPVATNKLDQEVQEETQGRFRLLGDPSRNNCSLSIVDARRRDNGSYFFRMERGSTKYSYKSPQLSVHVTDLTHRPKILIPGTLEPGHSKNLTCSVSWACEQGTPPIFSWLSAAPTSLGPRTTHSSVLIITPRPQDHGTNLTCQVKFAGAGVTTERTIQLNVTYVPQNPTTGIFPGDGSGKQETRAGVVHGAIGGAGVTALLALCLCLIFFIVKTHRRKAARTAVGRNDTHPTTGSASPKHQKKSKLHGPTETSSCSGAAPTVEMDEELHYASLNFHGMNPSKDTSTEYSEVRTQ
T3 sequence (P20138 18-259 R69G): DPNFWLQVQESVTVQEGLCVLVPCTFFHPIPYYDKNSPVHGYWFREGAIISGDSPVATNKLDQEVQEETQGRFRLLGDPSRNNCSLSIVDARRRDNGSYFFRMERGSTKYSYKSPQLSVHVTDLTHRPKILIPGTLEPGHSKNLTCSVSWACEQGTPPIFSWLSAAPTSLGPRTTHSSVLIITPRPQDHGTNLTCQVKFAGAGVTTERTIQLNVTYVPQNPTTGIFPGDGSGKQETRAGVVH
T5 sequence (P02768 25-609 limits assumed): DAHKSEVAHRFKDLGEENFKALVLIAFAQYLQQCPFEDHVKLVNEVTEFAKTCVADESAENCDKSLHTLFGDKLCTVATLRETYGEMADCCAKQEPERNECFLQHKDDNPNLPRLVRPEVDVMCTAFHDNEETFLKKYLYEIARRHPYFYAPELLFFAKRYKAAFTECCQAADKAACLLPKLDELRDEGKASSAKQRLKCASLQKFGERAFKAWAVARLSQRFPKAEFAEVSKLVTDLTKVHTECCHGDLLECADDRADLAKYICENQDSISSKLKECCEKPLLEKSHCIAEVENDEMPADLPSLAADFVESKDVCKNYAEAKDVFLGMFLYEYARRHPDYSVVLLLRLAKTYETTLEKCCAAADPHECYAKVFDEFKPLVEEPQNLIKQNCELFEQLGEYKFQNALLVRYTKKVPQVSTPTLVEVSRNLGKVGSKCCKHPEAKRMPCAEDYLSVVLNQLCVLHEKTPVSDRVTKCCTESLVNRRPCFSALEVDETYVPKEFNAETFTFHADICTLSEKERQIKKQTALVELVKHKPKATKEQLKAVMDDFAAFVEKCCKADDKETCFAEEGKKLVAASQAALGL

B1: DARPin® protein #61 (designed binder)
chain: DLGKKLLEAARAGQDDEVRELLKAGADVNAKDYFSHTPLHLAARNGHLKIVEVLLKAGADVNAKDFAGKTPLHLAAADGHLEIVEVLLKAGADVNAQDIFGKTPADIAADAGHEDIAEVLQKAAGSPTPTPTTPTPTPTTPTPTPTGSDLGKKLLEAARAGQDDEVRELLKAGADVNAKDYFSHTPLHLAARNGHLKIVEVLLKAGADVNAKDFAGKTPLHLAAADGHLEIVEVLLKAGADVNAQDIFGKTPADIAADAGHEDIAEVLQKAAGSPTPTPTTPTPTPTTPTPTPTGSDLGKKLLQAARAGQLDEVRELLKAGADVNAKDQQGLTPLHIAANLGHLEIVEVLLKAGADVNAKDLFGLTPLHLAAFEGHLEIVEVLLKAGADVNAKDQHGATPLHLAAWVGHLEIVEVLLKAGADVNAQDKSGKTPADLAARAGHQDIAEVLQKAAGSPTPTPTTPTPTPTTPTPTPTGSDLGKKLLQAALEGQLDEVRELLKAGADVNAKDIEGYTPLHLAAALGHLEIVEVLLKAGADVNAKDQIGRTPLHLAAYKGHLEIVEVLLKAGADVNAQDIIGQTPADLAAQRGHQDIAEVLQKAAGSPTPTPTTPTPTPTTPTPTPTGSDLGKKLLLAAERGQLDEVRILLKAGADVNAKDRAEGYTPLHIAAYQGHLEIVEVLLKAGADVNAKDRYGKTPLHLAAISGHLEIVEVLLKAGADVNAQDNKGSTPADLAADYGHQDIAEVLQKAAGSPTGSDLGQKLLEAAWAGQDDEVRELLKAGADVNAKNSRGWTPLHTAAQTGHLEIFEVLLKAGADVNAKNDKRVTPLHLAAALGHLEIVEVLLKAGADVNARDSWGTTPADLAAKYGHQDIAEVLQKAA
notes: HSA-HSA-CD70-CD123-CD33-CD3
Take B1: in test [1], the EC50 was found to be 0.13 nM.

B2: DARPin® protein #50 (designed binder)
chain: MRGSHHHHHHDLGKKLLEAARAGQDDEVRELLKAGADVNAKDYFSHTPLHLAARNGHLKIVEVLLKAGADVNAKDFAGKTPLHLAAADGHLEIVEVLLKAGADVNAQDIFGKTPADIAADAGHEDIAEVLQKAAGSPTPTPTTPTPTPTTPTPTPTGSDLGYKLLQAAYDGQLDEVRILLKAGADVNAKDSRGQTPLHYAASIGHLEIVEVLLKAGADVNAKDDHGWTPLHLAAWSGHLEIVEVLLKAGADVNAQDQEGTTPADLAAVQGHQDIAEVLQKAAGSPTPTPTTPTPTPTTPTPTPTGSDLGVKLLLAASRGQLDEVRILLKAGADVNAKDIDEGYTPLHIAAYYGHLEIVEVLLKAGADVNAKDRYGKTPLHLAAISGHLEIVEVLLKAGADVNAQDDKGDTPADLAADYGHQDIAEVLQKAAGSPTPTPTTPTPTPTTPTPTPTGSDLGQKLLEAAWAGQDDEVRELLKAGADVNAKNSRGWTPLHTAAQTGHLEIFEVLLKAGADVNAKDDKGVTPLHLAAALGHLEIVEVLLKAGADVNAQDSWGTTPADLAAKYGHEDIAEVLQKAA
notes: HSA-CD70-CD33-CD3
Take B2: in test [2], the binding result was “no binding (tested: 100 nM (highest concentration))”. The dissociation constant (Kd) in test [3] came to 7.5 nM; in test [4] it was 0.81 nM; in the test with human serum albumin, 24 nM.

B3: DARPin® protein #62 (designed binder)
chain: DLGKKLLEAARAGQDDEVRELLKAGADVNAKDYFSHTPLHLAARNGHLKIVEVLLKAGADVNAKDFAGKTPLHLAAADGHLEIVEVLLKAGADVNAQDIFGKTPADIAADAGHEDIAEVLQKAAGSPTPTPTTPTPTPTTPTPTPTGSDLGKKLLEAARAGQDDEVRELLKAGADVNAKDYFSHTPLHLAARNGHLKIVEVLLKAGADVNAKDFAGKTPLHLAAADGHLEIVEVLLKAGADVNAQDIFGKTPADIAADAGHEDIAEVLQKAAGSPTPTPTTPTPTPTTPTPTPTGSDLGIKLLTAAYDGQLDEVRILLKAGADVNAKDLRGQTPLHYAAGLGHLEIVEVLLKAGADVNAKDLHGWTPLHLAAWSGHLEIVEVLLKAGADVNAQDVEGVTPADLAAVQGHQDIAEVLQKAAGSPTPTPTTPTPTPTTPTPTPTGSDLGVKLLLAAERGQLDEVRILLKAGADVNAKDIAEGYTPLHIAAYQGHLEIVEVLLKAGADVNAKDRYGKTPLHLAAIGGHLEIVEVLLKAGADVNAQDNKGSTPADLAADYGHQDIAEVLQKAAGSPTPTPTTPTPTPTTPTPTPTGSDLGKKLLEAALEGQLDEVRELLKAGADVNAKDQEGYTPLHLAAALGHLEIVEVLLKAGADVNAKDQIGRTPLHLAAYKGHLEIVEVLLKAGADVNAQDIIGQTPADLAAQRGHQDIAEVLQKAAGSPTPTPTTPTPTPTTPTPTPTGSDLGQKLLEAAWAGQDDEVRELLKAGADVNAKNSRGWTPLHTAAQTGHLEIFEVLLKAGADVNAKNDKRVTPLHLAAALGHLEIVEVLLKAGADVNARDSWGTTPADLAAKYGHQDIAEVLQKAA
notes: HSA-HSA-CD70-CD33-CD123-CD3
In test [1], B3 gave a 50% effective concentration (EC50) of 0.36 nM.

B4: DARPin® protein #51 (designed binder)
chain: MRGSHHHHHHDLGKKLLEAARAGQDDEVRELLKAGADVNAKDYFSHTPLHLAARNGHLKIVEVLLKAGADVNAKDFAGKTPLHLAAADGHLEIVEVLLKAGADVNAQDIFGKTPADIAADAGHEDIAEVLQKAAGSPTPTPTTPTPTPTTPTPTPTGSDLGKKLLEAARAGQDDEVRELLKAGADVNAKDYFSHTPLHLAARNGHLKIVEVLLKAGADVNAKDFAGKTPLHLAAADGHLEIVEVLLKAGADVNAQDIFGKTPADIAADAGHEDIAEVLQKAAGSPTPTPTTPTPTPTTPTPTPTGSDLGYKLLQAAYDGQLDEVRILLKAGADVNAKDSRGQTPLHYAASIGHLEIVEVLLKAGADVNAKDDHGWTPLHLAAWSGHLEIVEVLLKAGADVNAQDQEGTTPADLAAVQGHQDIAEVLQKAAGSPTPTPTTPTPTPTTPTPTPTGSDLGVKLLLAASRGQLDEVRILLKAGADVNAKDIDEGYTPLHIAAYYGHLEIVEVLLKAGADVNAKDRYGKTPLHLAAISGHLEIVEVLLKAGADVNAQDDKGDTPADLAADYGHQDIAEVLQKAAGSPTPTPTTPTPTPTTPTPTPTGSDLGQKLLEAAWAGQDDEVRELLKAGADVNAKNSRGWTPLHTAAQTGHLEIFEVLLKAGADVNAKDDKGVTPLHLAAALGHLEIVEVLLKAGADVNAQDSWGTTPADLAAKYGHEDIAEVLQKAA
notes: HSA-HSA-CD70-CD33-CD3
Turning to B4, the binding result in test [2] was “no binding (tested: 100 nM (highest concentration))”. Also, the Kd is 5.5 nM in test [3], 0.56 nM in test [4] and 1.3 nM with human serum albumin.
